{"source": "patent US20190204338A1", "about": "“Methods for the Characterisation of Interaction Sites on Target Proteins” (Phylogica Limited, priority 2012, published 2019)", "key": {"[1]": {"test_system": "Notch", "assay": "Heterologous reporter construct specificity test (Notch)", "format": "cell-based", "details": "data not shown", "source_text": "(§1) Transfection of these Phylomers was not generally cytotoxic as assessed by cell viability using the Cell Titre Blue system (Promega) (data not shown). To initially assess their specificity for AP1 inhibition, we tested these hits against two heterologous reporter constructs designed to detect the activation of two distinct transcription factors, namely Notch and FOXO class Forkhead."}, "[2]": {"test_system": "FOXO class Forkhead", "assay": "Heterologous reporter construct specificity test (FOXO class Forkhead)", "format": "cell-based", "details": "data not shown", "source_text": "as §1"}}, "data": [{"molecule": "4G9: AP1-inhibitory Phylomer, SEQ ID NO: 6 (LKHRDYWVPL LYFFFVLITM ...), identified by phenotypic screening (protein, Protein fragment of unknown organism) LKHRDYWVPLLYFFFVLITMFWDLYCHSGQYLYEARSLLPFYLFPFLIAALRIGDIVVDTRCRNVENLGGFERSAESSRYVQLSLYERQWFRLRYRAYGGNLRCLAGDLVENWRLWKEVNSKAAKDIDGAVMLRFFLPPRDLARLVTLLAALIAVIATLIITLAIV", "values": [{"measurement": "Effect on Notch reporter construct", "setting": "[1]", "result": "generally inhibited all reporter constructs"}, {"measurement": "Effect on FOXO class Forkhead reporter construct", "setting": "[2]", "result": "generally inhibited all reporter constructs"}]}]}
